This is an account of results in patent US20180016337A1 (HELIX BIOPHARMA, published 2018).

This test deals with T1, CEACAM6 antigen (carcinoembryonic antigen related cell adhesion molecule 6) (human, UniProt P40199 35-320).
T1 construct: also called CD66c
T1 sequence: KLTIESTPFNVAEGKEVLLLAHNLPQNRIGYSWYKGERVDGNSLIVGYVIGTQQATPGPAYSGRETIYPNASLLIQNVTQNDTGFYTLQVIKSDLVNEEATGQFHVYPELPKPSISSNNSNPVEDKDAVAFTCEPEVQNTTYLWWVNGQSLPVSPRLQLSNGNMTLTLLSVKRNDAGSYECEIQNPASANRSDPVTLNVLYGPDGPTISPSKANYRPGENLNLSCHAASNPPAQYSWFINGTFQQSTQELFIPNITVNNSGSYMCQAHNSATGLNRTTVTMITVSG
The experiment in a line: SPR, format not stated. (Surface plasmon resonance follows binding to a sensor surface in real time, without labels.)

B1: 2A3 camelid single domain antibody (anti-CEACAM6) (VHH)
VHH: QVKLEESGGGLVQAGGSLRLSCRTSGRTNSVYTMGWFRQAPGKEREFVAQIMWGAGTNTHYADSVKGRFTISRDSAESTVYLQMNSLKPEDTAVYYCAANRGIPIAGRQYDYWGQGTQVTVSS
notes: Llama sdAb isolated from a whole cancer cell immunized library; also called 2A3 antibody; 2A3 anti-CEACAM6 antibody
One may read the Kd as a measure of binding affinity in units of concentration. In turn, B1 showed a dissociation constant (Kd) of 5 nM.
